Measurements: patent US20220073594A1 (NEWSOARA BIOPHARMA, published 2022)
Numbering of substitutions follows the chain as printed.

B1: Antibody 37G2 (antibody, V domains shown)
VH: QVQLVQSGAEVKKPGSSVKVSCKASGGTFSSYAITWVRQAPGQGLEWMGGIIPIFGTANFAQKFQGRVTITADESTSTAYMELSSLRSEDTAVYYCAHLGGFADPFDYWGQGTLVTVSS
VL: EIVLTQSPATLSLSPGERATLSCRASQSVSNYLAWYQQKAGQAPRVLIYDAFNRATGIPARFSGSGSGTDFTLTISSLEPEDFAVYYCQQRSNWPPRITFGQGTRLEIK
B2: Antibody 31C2 (antibody, V domains shown)
VH: QVQLVQSGAEVKKPGSSVKVSCKASGGTFSSYAISWVRQAPGQGLEWMGGIIPIFGTTNYAQKFQGRVTITADESTSTAYMELNSLRSEDTAVYYCAGRSAYGDKGYYFDYWGQGTLVTVSS
VL: B1 VL with Y32F, A40P, V46L, F52S, E79Q, R97Q, I98E, R105K, L106V
B3: Antibody 15A7 (antibody, V domains shown)
VH: QVQLVQSGAEVKKPGASVKVSCKASGYTFTSYDINWVRQASGQGLEWMGWMNPNSANPGYAQKFQGRVTMTRNTSISTAFMELSSLRSDDTAVYYCARARVTIHYDILTGYYSNAFDIWGQGTMVAVSS
VL: DIQMTQSPSSLSASVGDRVTITCRASQTISSYLNWYQQKPGKAPKLLIYAASSLQSGVPSRFSGSGSGADFTLTISSLQPEDFATYYCQQSYTTFMYTFGQGTMLEIK

Assays:
[1] = molecular target: T1, SARS-CoV-2 S1 subunit (SARS-CoV-2, UniProt P0DTC2 16-685); assay: ELISA, coated S1 protein, antibody at 1 ug/mL
T1 construct: domain: S1 subunit
Experimental: (§1) Polystyrene microplates (Corning) were coated overnight with 0.1 or 1 μg/mL of SARS-CoV-2 S, S1 or RBD protein (Sino Biological). After washing with PBS containing 0.2% Tween 20, the plates were blocked using 2% BSA (Sigma Aldrich) in PBST for 1 hour at 37° C. Following washing with PBST, testing antibodies (1 ug/mL) were added to each well and incubated at 37° C. for 1 hour. After washing with PBST, HRP-conjugated goat anti-human IgG antibody was added at the dilution of 1:5000 and incubated at 37° C. for 1 hour. After washing, 3,3′,5,5′-Tetramethylbenzidine (TMB) substrate solution was added to the microplate and incubated at room temperature for 6 min, followed by adding 2M H₂SO₄ to stop the reaction. The absorbance was detected at 450 nm.

[2] = molecular target: SARS-CoV-2 spike protein (S protein) (SARS-CoV-2, UniProt P0DTC2 16-1213); assay: ELISA, coated S protein, antibody at 1 ug/mL
Experimental: as §1

[3] = molecular target: SARS-CoV-2 RBD protein (receptor-binding domain of the spike protein) (SARS-CoV-2, UniProt P0DTC2 319-541); assay: ELISA, coated RBD protein, antibody at 1 ug/mL
Experimental: as §1

| Binder | binding result [1] | binding result [2] | binding result [3] |
| --- | --- | --- | --- |
| B1 | no binding (tested: 1 ug/mL) | – | – |
| B2 | no binding (tested: 1 ug/mL) | – | – |
| B3 | binds | binds | binds |
